Substitutions are numbered along the chain they refer to. Where two headings read alike, the source gives them in different places. One block for each molecule: values may come before it. Residues, ends and D or L forms follow the SMILES beside them.
Assays:
[1] = test system: human red blood cells; experiment: Hemolytic activity; type: cell-based
Description: Hemolytic activity was studied by incubating the fusion constructs with human red blood cells at concentrations of 0.01, 0.1, 1, 10 and 50 μM for 2 hours. Saline and 0.1% Triton served as controls.
Hemolytic activity of the compounds was studied by incubating EP-301 and EP-302 with human red blood cells at concentrations of 0.01, 0.1, 1, 10 and 50 μM for 2 hours.

[2] = test system: MDA-MB-435S breast cancer cells; type: cell-based, human
Description: Twelve different fusion constructs were analyzed for anti-cancer activity in vitro against MDA-MB-435S breast cancer cells and for hemolytic activity in vitro to human red blood cells. Fusion constructs of the following sequence were tested:
(§1) The peptide conjugates were freshly dissolved in saline and added into cancer cell seeded multi-well plates at increasing concentrations of 0, 0.001, 0.01, 0.1, 1, 2, 5, 10 and 100 μM. Incubations were conducted for 4 h at 37° C. Cell viability was determined using formazan conversion assays (MTT assays). Controls were treated with USP saline or 0.1% TritonX-100™ as reference for 0 and 100% cell death, respectively. Cytotoxicity was evaluated as an IC50 value.

[3] = test system: MDA-MB-435S breast cancer cells; type: cell-based, human; settings: 24 h
Description: as §1, with “EP-301 and EP-302 were analyzed for anti-cancer activity in vitro in a time course experiment against MDA-MB-435S breast cancer cells. EP-301 and EP-302” for “The peptide conjugates”, “0.25, 0.5, 1, 2, 4, 6 h or 24” for “4”, “value derived for EP-301 and EP-302 at each time point.” for “value.”

[4] = target: T1, nucleolin expressed on the surface of human cancer cell lines (human, UniProt P19338); experiment: cell-based or functional assay
[5] = target: T1, nucleolin expressed on the surface of …; experiment: cell-based or functional assay; remark: listed apart in the source
[6] = target: T1, nucleolin expressed on the surface of …; experiment: cell-based or functional assay; remark: listed apart in the source
[7] = target: nucleolin on CHO (Hamster Ovary) cells (hamster)
[8] = target: T1, nucleolin expressed on the surface of …; experiment: cell-based or functional assay; remark: listed apart in the source

Molecule: CC(C)C[C@H](NC(=O)[C@H](CCCNC(=N)N)NC(=O)[C@H](C)NC(=O)[C@H](CO)NC(=O)[C@H](CCCNC(=N)N)NC(=O)[C@H](CCCNC(=N)N)NC(=O)[C@H](CCC(N)=O)NC(=O)[C@H](CC(C)C)NC(=O)[C@H](CCCNC(=N)N)NC(=O)[C@H](CCCCN)NC(=O)[C@H](C)NC(=O)[C@H](Cc1ccccc1)NC(=O)[C@H](CCCCN)NC(=O)[C@H](CCCCN)NC(=O)[C@H](C)NC(=O)[C@H](Cc1ccccc1)NC(=O)[C@H](CCCCN)NC(=O)[C@H](C)NC(=O)[C@H](Cc1ccccc1)NC(=O)[C@H](CCCCN)NC(=O)[C@H](CCCCN)NC(=O)[C@H](C)NC(=O)[C@H](Cc1ccccc1)NC(=O)[C@H](CCCCN)NC(=O)[C@H](C)NC(=O)[C@H](Cc1ccccc1)NC(=O)[C@@H](N)CCCCN)C(=O)N[C@@H](CO)C(=O)N[C@@H](C)C(=O)N[C@@H](CCCCN)C(=O)O (H-KFAKFAKKFAKFAKKFAKRLQRRSARLSAK-OH)
HA50 ([1]; human red blood cells, 2 hours): 56 µM
HA50 ([1]; human red blood cells, 2 hours, listed as KFAKFAKKFAKFAICKFAKR19LQRRSARLSAK30): 56 ± 8.5 µM
IC50 ([2]; MDA-MB-435S, 4 h at 37° C, MTT, read-out: IC50): 2.2 ± 0.3 µM

IC50 ([2]; 4 h): 0.8 ± 0.16 µM
Molecule: CC(C)C[C@H](NC(=O)[C@H](CCCNC(=N)N)NC(=O)[C@H](C)NC(=O)[C@@H](NC(=O)[C@H](CCCCN)NC(=O)[C@H](C)NC(=O)[C@H](Cc1ccccc1)NC(=O)[C@H](CCCCN)NC(=O)[C@H](CCCCN)NC(=O)[C@H](C)NC(=O)[C@H](Cc1ccccc1)NC(=O)[C@H](CCCCN)NC(=O)[C@H](C)NC(=O)[C@H](Cc1ccccc1)NC(=O)[C@H](CCCCN)NC(=O)[C@H](CCCCN)NC(=O)[C@H](C)NC(=O)[C@H](Cc1ccccc1)NC(=O)[C@H](CCCCN)NC(=O)[C@H](C)NC(=O)[C@H](Cc1ccccc1)NC(=O)[C@@H](N)CCCCN)C(C)C)C(=O)N[C@@H](CCC(N)=O)C(=O)N[C@@H](CCCNC(=N)N)C(=O)N[C@@H](CCCNC(=N)N)C(=O)N[C@@H](Cc1ccccc1)C(=O)N[C@@H](C)C(=O)O (H-KFAKFAKKFAKFAKKFAKVARLQRRFA-OH)
HA50 [1]: Not hemolytic

IC50 [3]: 12 µM
IC50 ([2]; 4 h): 64.8 µM
Molecule: CC(C)C[C@H](NC(=O)[C@H](CCCNC(=N)N)NC(=O)[C@H](C)NC(=O)[C@H](CO)NC(=O)[C@H](CCCNC(=N)N)NC(=O)[C@H](CCCNC(=N)N)NC(=O)[C@H](CCC(N)=O)NC(=O)[C@@H]1CCCN1C(=O)[C@H](CCC(=O)O)NC(=O)[C@H](CC(=O)O)NC(=O)[C@H](CCCCN)NC(=O)[C@H](CCCCN)NC(=O)[C@H](C)NC(=O)[C@H](Cc1ccccc1)NC(=O)[C@H](CCCCN)NC(=O)[C@H](CCCCN)NC(=O)[C@H](C)NC(=O)[C@H](Cc1ccccc1)NC(=O)[C@H](CCCCN)NC(=O)[C@H](C)NC(=O)[C@H](Cc1ccccc1)NC(=O)[C@H](CCCCN)NC(=O)[C@H](CCCCN)NC(=O)[C@H](C)NC(=O)[C@H](Cc1ccccc1)NC(=O)[C@H](CCCCN)NC(=O)[C@H](C)NC(=O)[C@H](Cc1ccccc1)NC(=O)[C@@H](N)CCCCN)C(=O)N[C@@H](CO)C(=O)N[C@@H](C)C(=O)N[C@@H](CCCCN)C(=O)O [EP-301] (H-KFAKFAKKFAKFAKKFAKKDEPQRRSARLSAK-OH)
HA50 [1]: Not hemolytic

B1: EP-302 (peptide)
chain: KFAKFAKKFAKFAKKFAKRARLQRRSARLSAK
IC50 of cytotoxicity (MTT), MDA-MB-435S breast cancer cells, 4 h [4]: 0.9 µM
IC50 of cytotoxicity (MTT), MDA-MB-435S breast cancer cells, time course, 30 minutes [5]: 2.3 µM
IC50 of cytotoxicity (MTT), A549 (Lung) cells, 6 h [6]: 4.3 µM
IC50 of cytotoxicity (MTT), A549 (Lung) cells, 24 h [6]: 2.4 µM
IC50 of cytotoxicity (MTT), DU145 (Prostate) cells, 6 h [6]: 3.1 µM
IC50 of cytotoxicity (MTT), DU145 (Prostate) cells, 24 h [6]: 5.1 µM
IC50 of cytotoxicity (MTT), Daudi (NHL) cells, 6 h [6]: 3.2 µM
IC50 of cytotoxicity (MTT), Daudi (NHL) cells, 24 h [6]: 2.5 µM
IC50 of cytotoxicity (MTT), HL60 (Acute Myeloid Leukemia) cells, 24 h [6]: 0.5 µM
IC50 of cytotoxicity (MTT), HT 29 (Colon) cells, 6 h [6]: 45.8 µM
IC50 of cytotoxicity (MTT), HT 29 (Colon) cells, 24 h [6]: 26.2 µM
IC50 of cytotoxicity (MTT), HT 116(Colon) cells, 6 h [6]: 6.7 µM
IC50 of cytotoxicity (MTT), HT 116(Colon) cells, 24 h [6]: 4.8 µM
IC50 of cytotoxicity (MTT), K562 (Chronic Myeloid Leukemia) cells, 24 h [6]: 2.8 µM
IC50 of cytotoxicity (MTT), LoVo (Colon) cells, 6 h [6]: 14.1 µM
IC50 of cytotoxicity (MTT), LoVo (Colon) cells, 24 h [6]: 12.5 µM
IC50 of cytotoxicity (MTT), MCF-7 (Breast) cells, 6 h [6]: 5.5 µM
IC50 of cytotoxicity (MTT), MCF-7 (Breast) cells, 24 h [6]: 6.4 µM
IC50 of cytotoxicity (MTT), MDA-MB-231 (Breast) cells, 6 h [6]: 4.6 µM
IC50 of cytotoxicity (MTT), MDA-MB-231 (Breast) cells, 24 h [6]: 3.6 µM
IC50 of cytotoxicity (MTT), MDA-MB-435S (Breast) cells, 6 h [6]: 1.4 µM
IC50 of cytotoxicity (MTT), MDA-MB-435S (Breast) cells, 24 h [6]: 1.7 µM
IC50 of cytotoxicity (MTT), MV4-11(Acute Myeloid Leukemia) cells, 24 h [6]: 0.5 µM
IC50 of cytotoxicity (MTT), MiaPaCa (Pancreas) cells, 6 h [6]: 2.1 µM
IC50 of cytotoxicity (MTT), MiaPaCa (Pancreas) cells, 24 h [6]: 1.9 µM
IC50 of cytotoxicity (MTT), OVCAR-3 (Ovary) cells, 6 h [6]: 5.2 µM
IC50 of cytotoxicity (MTT), PC-3 (Prostate) cells, 6 h [6]: 3.3 µM
IC50 of cytotoxicity (MTT), PC-3 (Prostate) cells, 24 h [6]: 3.2 µM
IC50 of cytotoxicity (MTT), SKOV-3 (Ovary) cells, 6 h [6]: 5.1 µM
IC50 of cytotoxicity (MTT), SKOV-3 (Ovary) cells, 24 h [6]: 5.2 µM
IC50 of cytotoxicity (MTT), CHO (Hamster Ovary) cells, 6 h [7]: 3.1 µM
IC50 of cytotoxicity (MTT), CHO (Hamster Ovary) cells, 24 h [7]: 3.7 µM

B2: EP-301 (peptide)
chain: B1 chain with R19K, A20D, R21E, L22P
IC50 of cytotoxicity (MTT), MDA-MB-435S breast cancer cells, 4 h [4]: 64.8 µM
IC50 of cytotoxicity (MTT), MDA-MB-435S breast cancer cells, time course, 30 minutes [5]: 48 µM
IC50 of cytotoxicity (MTT), MDA-MB-435S breast cancer cells, time course, 6 h [5]: > 40 µM
IC50 of cytotoxicity (MTT), MDA-MB-435S breast cancer cells, time course, 24 h [5]: 12 µM

B3: H1ARLQRRSARLSAK14 (peptide)
peptide: HARLQRRSARLSAK
IC50 of cytotoxicity (MTT), MDA-MB-435S breast cancer cells, 120 h [8]: 3.2 µM

B4: R1ARLQRRSARLS12 (peptide)
peptide: RARLQRRSARLS
IC50 of cytotoxicity (MTT), MDA-MB-435S breast cancer cells, 120 h [8]: 6.5 µM

B5: R1ARLQRRSARL11 (peptide)
peptide: RARLQRRSARL
IC50 of cytotoxicity (MTT), MDA-MB-435S breast cancer cells, 120 h [8]: 5.4 µM

B6: RARLQRRSARLSAK (peptide)
peptide: RARLQRRSARLSAK
IC50 of cytotoxicity (MTT), MDA-MB-435S breast cancer cells, 120 h [8]: 2.4 µM

B7: H1AHLQRRSARLSAK14 (peptide)
peptide: HAHLQRRSARLSAK
IC50 of cytotoxicity (MTT), MDA-MB-435S breast cancer cells, 120 h [8]: 4.7 µM

B8: R1VRLQRRSARLSAK14 (peptide)
peptide: RVRLQRRSARLSAK
IC50 of cytotoxicity (MTT), MDA-MB-435S breast cancer cells, 120 h [8]: 1.9 µM

B9: F3-14 mer fragment (peptide)
peptide: KDEPQRRSARLSAK
IC50 of cytotoxicity (MTT), MDA-MB-435S breast cancer cells, 120 h [8]: 11.1 µM
